Assay results: publication PMC10623103, “A case of hyperlysinemia identified by urine newborn screening” (JIMD Reports, 2023)

Target: the molecule itself
Test: SEC; Superdex200 Increase on an AKTA FPLC after IMAC; uncut His-SUMOstar-LOR; elution compared with the expected tetrameric size and the aggregation peak

B1: 2-aminoadipic semialdehyde synthase (AASS) lysine 2-oxoglutarate reductase (LOR) domain, p.T371I variant, His-SUMOstar-LOR [residues 21-470] (domain or fragment, human, UniProt Q9UDR5 21-470, looked up)
chain: HHKAVLAVRREDVNAWERRAPLAPKHIKGITNLGYKVLIQPSNRRAIHDKDYVKAGGILQEDISEACLILGVKRPPEEKLMSRKTYAFFSHTIKAQEANMGLLDEILKQEIRLIDYEKMVDHRGVRVVAFGQWAGVAGMINILHGMGLRLLALGHHTPFMHIGMAHNYRNSSQAVQAVRDAGYEISLGLMPKSIGPLTFVFTGTGNVSKGAQAIFNELPCEYVEPHELKEVSQTGDLRKVYGTVLSRHHHLVRKTDAVYDPAEYDKHPERYISRFNTDIAPYTTCLINGIYWEQNTPRLLTRQDAQSLLAPGKFSPAGVEGCPALPHKLVAICDISADTGGSIEFMTECTIIEHPFCMYDADQHIIHDSVEGSGILMCSIDNLPAQLPIEATECFGDMLYPYVEEMILSDATQPLESQNFSPVVRDAVITSNGTLPDKYKYIQTLRESRE
notes: 2-aminoadipic semialdehyde synthase (AASS), LOR domain, residues 21-470, patient variant c.1112C>T (p.T371I); Purified as uncut SUMOstar-LOR; calculated MW of the His-SUMOstar-LOR monomer is 62.4 kD; PDB 8E8U is the wild-type LOR structure (cited); also called I371 variant; LOR variant; source: E. coli LOBSTR cells, purified (IMAC, size-exclusion chromatography on Superdex200 Increase); not …
B1: binds.
